Reference: patent US20170260251A1 (ANSUN BIOPHARMA, published 2017)

Tests used:
mouse kallikrein = molecular target: T1, mouse kallikrein (mouse, UniProt P26262 20-638, limits assumed); test: protease inhibition constant Ki, mouse enzyme
T1 construct: also called Kallikrein (mice)

[1] = molecular target: T2, mouse coagulation factor IXa (mouse, UniProt P16294 47-192; P16294 237-471); test: protease inhibition constant Ki, mouse enzyme
T2 construct: also called IXa (mice)

mouse plasmin = molecular target: T3, mouse plasmin (mouse, UniProt P20918 98-812); test: protease inhibition constant Ki, mouse enzyme
T3 construct: also called Plasmin (mice)

mouse thrombin = molecular target: T4, mouse thrombin (mouse, UniProt P19221 325-618); test: protease inhibition constant Ki, mouse enzyme
T4 construct: also called Thrombin (mice)

[2] = molecular target: T5, mouse coagulation factor Xa (mouse, UniProt O88947 41-180; O88947 232-481, limits assumed); test: protease inhibition constant Ki, mouse enzyme
T5 construct: also called Xa (mice)

human plasmin = human plasmin (human, UniProt P00747 97-810); test: protease inhibition constant Ki, human enzyme
human thrombin = human thrombin (human, UniProt P00734 328-622); test: protease inhibition constant Ki, human enzyme
[3] = molecular target: T6, human coagulation factor VIIa (human, UniProt P08709 61-466); test: protease inhibition constant Ki, human enzyme
T6 sequence (looked up): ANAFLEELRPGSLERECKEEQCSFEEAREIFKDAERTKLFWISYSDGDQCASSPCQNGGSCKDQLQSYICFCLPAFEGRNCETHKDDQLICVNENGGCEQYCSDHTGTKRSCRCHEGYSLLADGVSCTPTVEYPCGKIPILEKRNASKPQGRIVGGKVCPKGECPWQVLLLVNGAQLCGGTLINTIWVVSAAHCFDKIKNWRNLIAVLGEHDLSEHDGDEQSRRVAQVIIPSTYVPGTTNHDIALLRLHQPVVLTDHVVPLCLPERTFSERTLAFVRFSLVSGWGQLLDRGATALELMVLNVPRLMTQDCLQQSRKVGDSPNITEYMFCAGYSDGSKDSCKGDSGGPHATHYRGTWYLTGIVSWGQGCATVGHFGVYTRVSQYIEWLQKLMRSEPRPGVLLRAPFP

[4] = molecular target: human coagulation factor Xa (human, UniProt P00742 41-179; P00742 235-488, limits assumed); test: protease inhibition constant Ki, human enzyme
human kallikrein = human kallikrein (human, UniProt P03952 20-638, limits assumed); test: protease inhibition constant Ki, human enzyme
Sequence of human kallikrein (P03952 20-638 limits assumed): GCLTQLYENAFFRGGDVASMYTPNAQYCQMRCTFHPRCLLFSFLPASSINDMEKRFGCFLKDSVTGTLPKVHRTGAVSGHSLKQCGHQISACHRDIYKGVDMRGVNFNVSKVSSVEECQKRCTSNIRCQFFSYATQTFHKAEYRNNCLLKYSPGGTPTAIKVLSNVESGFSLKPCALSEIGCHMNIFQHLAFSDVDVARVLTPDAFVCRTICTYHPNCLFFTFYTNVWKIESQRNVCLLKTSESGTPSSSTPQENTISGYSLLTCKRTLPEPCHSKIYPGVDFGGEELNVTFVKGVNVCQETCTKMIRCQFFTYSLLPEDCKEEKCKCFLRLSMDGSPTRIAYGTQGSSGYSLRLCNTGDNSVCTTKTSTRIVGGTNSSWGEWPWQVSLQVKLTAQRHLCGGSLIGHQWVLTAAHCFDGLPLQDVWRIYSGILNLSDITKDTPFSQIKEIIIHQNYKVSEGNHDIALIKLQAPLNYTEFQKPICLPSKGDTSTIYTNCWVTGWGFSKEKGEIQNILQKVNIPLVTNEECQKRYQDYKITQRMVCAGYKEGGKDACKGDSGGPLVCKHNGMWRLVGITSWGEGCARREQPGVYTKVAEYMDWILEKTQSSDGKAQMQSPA

T5 sequence (O88947 41-180 limits assumed, chain 1 of 2): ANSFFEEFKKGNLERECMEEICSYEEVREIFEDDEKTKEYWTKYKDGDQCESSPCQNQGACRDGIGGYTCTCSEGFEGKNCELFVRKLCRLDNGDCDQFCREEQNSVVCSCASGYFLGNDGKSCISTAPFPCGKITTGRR
T5 sequence (O88947 232-481 limits assumed, chain 2 of 2): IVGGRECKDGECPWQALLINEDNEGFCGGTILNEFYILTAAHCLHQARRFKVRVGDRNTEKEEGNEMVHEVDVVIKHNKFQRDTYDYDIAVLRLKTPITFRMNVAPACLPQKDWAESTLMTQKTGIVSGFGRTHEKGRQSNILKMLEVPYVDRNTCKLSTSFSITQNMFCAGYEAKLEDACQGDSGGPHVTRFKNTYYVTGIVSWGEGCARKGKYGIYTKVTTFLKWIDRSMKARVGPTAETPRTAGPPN
T1 sequence (P26262 20-638 limits assumed): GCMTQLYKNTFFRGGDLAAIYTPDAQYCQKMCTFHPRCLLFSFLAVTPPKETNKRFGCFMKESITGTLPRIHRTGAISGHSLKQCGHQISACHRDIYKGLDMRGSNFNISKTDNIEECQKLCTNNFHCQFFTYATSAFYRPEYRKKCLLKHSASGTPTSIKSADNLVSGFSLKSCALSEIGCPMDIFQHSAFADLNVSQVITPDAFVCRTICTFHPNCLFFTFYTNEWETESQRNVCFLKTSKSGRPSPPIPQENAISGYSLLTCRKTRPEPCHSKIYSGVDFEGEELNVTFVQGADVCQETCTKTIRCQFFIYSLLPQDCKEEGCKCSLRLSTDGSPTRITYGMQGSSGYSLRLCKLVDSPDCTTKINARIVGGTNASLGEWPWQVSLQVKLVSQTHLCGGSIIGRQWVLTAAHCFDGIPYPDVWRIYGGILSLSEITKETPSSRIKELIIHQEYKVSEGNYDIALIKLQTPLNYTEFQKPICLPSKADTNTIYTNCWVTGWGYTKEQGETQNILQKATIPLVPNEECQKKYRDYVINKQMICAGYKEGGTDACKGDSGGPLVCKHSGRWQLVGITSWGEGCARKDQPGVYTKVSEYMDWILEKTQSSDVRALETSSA
T3 sequence (P20918 98-812 limits assumed): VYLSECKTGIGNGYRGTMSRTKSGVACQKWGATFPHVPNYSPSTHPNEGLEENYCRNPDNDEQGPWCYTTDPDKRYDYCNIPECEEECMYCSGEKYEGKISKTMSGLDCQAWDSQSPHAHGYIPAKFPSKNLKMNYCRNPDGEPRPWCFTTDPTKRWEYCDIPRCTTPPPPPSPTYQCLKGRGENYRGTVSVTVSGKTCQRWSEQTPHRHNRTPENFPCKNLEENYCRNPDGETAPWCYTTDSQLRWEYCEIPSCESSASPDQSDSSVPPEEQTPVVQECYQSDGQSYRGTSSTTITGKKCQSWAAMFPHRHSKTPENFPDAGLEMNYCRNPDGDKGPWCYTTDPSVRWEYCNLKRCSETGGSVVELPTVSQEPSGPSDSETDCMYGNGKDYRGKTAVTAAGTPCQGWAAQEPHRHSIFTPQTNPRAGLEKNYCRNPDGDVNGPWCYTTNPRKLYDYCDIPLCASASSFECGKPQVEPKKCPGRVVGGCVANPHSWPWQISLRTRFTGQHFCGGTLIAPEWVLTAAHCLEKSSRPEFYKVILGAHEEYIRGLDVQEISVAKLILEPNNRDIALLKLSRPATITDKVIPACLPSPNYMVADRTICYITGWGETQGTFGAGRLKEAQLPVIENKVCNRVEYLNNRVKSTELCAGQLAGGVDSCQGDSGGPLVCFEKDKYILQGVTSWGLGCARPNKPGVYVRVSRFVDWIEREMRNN
Sequence of human coagulation factor Xa (P00742 41-179 limits assumed, chain 1 of 2): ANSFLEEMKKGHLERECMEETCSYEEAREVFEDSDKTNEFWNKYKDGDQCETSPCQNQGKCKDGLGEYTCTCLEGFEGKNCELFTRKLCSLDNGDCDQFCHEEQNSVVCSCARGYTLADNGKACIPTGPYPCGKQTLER
Sequence of human coagulation factor Xa (P00742 235-488 limits assumed, chain 2 of 2): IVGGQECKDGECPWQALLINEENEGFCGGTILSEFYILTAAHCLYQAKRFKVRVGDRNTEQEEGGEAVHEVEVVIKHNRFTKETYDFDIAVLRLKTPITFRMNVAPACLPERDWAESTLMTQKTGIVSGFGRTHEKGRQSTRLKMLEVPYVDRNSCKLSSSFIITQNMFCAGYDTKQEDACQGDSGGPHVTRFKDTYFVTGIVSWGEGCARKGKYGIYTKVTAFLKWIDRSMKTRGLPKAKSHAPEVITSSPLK
Sequence of human plasmin (P00747 97-810 limits assumed): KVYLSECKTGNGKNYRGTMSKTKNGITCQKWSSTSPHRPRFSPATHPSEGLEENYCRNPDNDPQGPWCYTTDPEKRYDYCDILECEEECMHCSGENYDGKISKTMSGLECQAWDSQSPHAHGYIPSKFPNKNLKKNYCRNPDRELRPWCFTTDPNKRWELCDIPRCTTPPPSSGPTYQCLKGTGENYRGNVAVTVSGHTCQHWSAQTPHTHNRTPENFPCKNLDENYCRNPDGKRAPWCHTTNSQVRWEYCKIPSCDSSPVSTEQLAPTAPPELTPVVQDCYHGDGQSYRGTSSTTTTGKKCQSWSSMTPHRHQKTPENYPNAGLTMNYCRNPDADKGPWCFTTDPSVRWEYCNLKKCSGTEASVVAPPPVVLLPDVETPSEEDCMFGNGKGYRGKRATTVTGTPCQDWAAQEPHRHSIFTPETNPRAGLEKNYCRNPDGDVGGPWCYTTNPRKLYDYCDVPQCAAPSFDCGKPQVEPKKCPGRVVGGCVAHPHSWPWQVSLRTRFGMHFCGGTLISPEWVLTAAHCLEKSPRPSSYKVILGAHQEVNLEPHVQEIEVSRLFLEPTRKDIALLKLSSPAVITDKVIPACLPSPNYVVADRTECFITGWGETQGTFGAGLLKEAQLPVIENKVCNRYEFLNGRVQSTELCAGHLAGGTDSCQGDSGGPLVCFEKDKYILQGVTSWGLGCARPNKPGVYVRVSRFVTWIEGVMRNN
T2 sequence (P16294 47-192 limits assumed, chain 1 of 2): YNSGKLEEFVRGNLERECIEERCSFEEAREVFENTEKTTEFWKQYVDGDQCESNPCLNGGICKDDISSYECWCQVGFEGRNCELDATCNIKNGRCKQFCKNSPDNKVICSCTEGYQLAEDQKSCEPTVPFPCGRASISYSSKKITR
T2 sequence (P16294 237-471 limits assumed, chain 2 of 2): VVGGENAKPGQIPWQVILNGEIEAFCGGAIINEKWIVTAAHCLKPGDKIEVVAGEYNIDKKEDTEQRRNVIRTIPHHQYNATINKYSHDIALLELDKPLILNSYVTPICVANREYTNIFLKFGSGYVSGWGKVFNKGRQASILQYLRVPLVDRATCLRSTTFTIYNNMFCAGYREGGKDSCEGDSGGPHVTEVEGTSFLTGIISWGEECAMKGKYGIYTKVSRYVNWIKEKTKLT

Ki (mouse kallikrein): 0.2 nM | Ki [1]: 0.6 nM | Ki (mouse plasmin): 1.2 nM | Ki (mouse thrombin): 11.6 nM | Ki [2]: 0.2 nM | Ki (human plasmin): 18.7 nM | Ki (human thrombin): 1.6 nM | Ki [3]: 0.2 nM | Ki [4]: 0.2 nM | Ki (human kallikrein): 0.07 nM
B1: Ecotin variant NB141 (M84R/S82H) (other)
chain: AESVQPLEKIAPYPQAEKGMKRQVIQLTPQEDESTLKVELLIGQTLEVDCNLHRLGGKLENKTLEGWGYDYYVFDKVSSPVHTRMACPDGKKEKKFVTAYLGDAGMLRYNSKLPIVVYTPDNVDVKYRVWKAEEKIDNAVVR
